Assay results from article PMC7350415.

Tests used:
[1] = target: ovine CD27 (OaCD27), full length, C-terminally V5 tagged, on transfected HEK293 cells (Ovis aries); assay: immunostaining of cells or tissue; HEK293 cells transfected with the V5-tagged receptor incubated with 10 μg of purified ligand for 15 min at 4 °C, then fixed; ligand detected with anti-ovine Fc antibody, receptor with anti-V5; confocal microscopy, pixel colocalisation in 25-40 cells
[2] = target: ovine OX40 (OaOX40), full length, C-terminally V5 tagged, on transfected HEK293 cells (Ovis aries); assay: immunostaining of cells or tissue; HEK293 cells transfected with the V5-tagged receptor incubated with conditioned media from adenovirus-infected cells for 15 min, then fixed; ligand detected with anti-Fc antibody, receptor with anti-V5; confocal microscopy, pixel colocalisation in 25-40 cells
[3] = target: ovine CD27 (OaCD27), full length, C-terminally V5 tagged, on transfected HEK293 cells (Ovis aries); assay: as above
[4] = target: ovine OX40 (OaOX40), full length, C-terminally V5 tagged, on transfected HEK293 cells (Ovis aries); assay: immunostaining of cells or tissue; HEK293 cells transfected with the V5-tagged receptor incubated with 10 μg of purified ligand for 15 min at 4 °C, then fixed; ligand detected with anti-ovine Fc antibody, receptor with anti-V5; confocal microscopy, pixel colocalisation in 25-40 cells

Substance: purified recombinant ovine CD70 (rOaCD70), baculovirus-expressed: ovine IgG1 Fc - isoleucine zipper - predicted extracellular domain of ovine CD70 (Fc fusion)
- percentage of ligand sharing pixel localisation with its receptor [1]: 72.8%

Substance: secreted rOaOX40L expressed from recombinant adenovirus Ad5-OaOX40L (same construct as the baculovirus protein) (Fc fusion)
- percentage of ligand signal colocalising with its receptor [2]: 60.4%

Substance: secreted rOaCD70 expressed from recombinant adenovirus Ad5-OaCD70 (same construct as the baculovirus protein) (Fc fusion)
- percentage of ligand signal colocalising with its receptor [3]: 73.5%

Substance: purified recombinant ovine OX40L (rOaOX40L), baculovirus-expressed: ovine IgG1 Fc - isoleucine zipper - predicted extracellular domain of ovine OX40L (Fc fusion)
- percentage of ligand sharing pixel localisation with its receptor [4]: 59.3%
